Measured values reported in the supplement of paper PMC9112550, “Optimization of the antimicrobial peptide Bac7 by deep mutational scanning” (BMC Biology, 2022).

System: Escherichia coli TOP10
Test: shrunken log2 fold change of peptide-encoding DNA abundance (4.5 h post-induction vs induction); higher = less antimicrobial activity (less host growth inhibition)
Conditions: time post-induction: 4.5 h; library: site-saturation at positions 5, 18, 19, 20
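Further: peptides expressed intracellularly from a pBAD plasmid library in pooled LB shake-flask culture, induced with 0.3% L-arabinose, DNA abundance read by NGS, three biological replicates, DESeq2 with apeglm shrinkage.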

Sequence	shrunken log2 fold change
RRIRWRPPRLPRPRPRPDVMPRP	0.126
RRIRYRPPRLPRPRPRPRDHPRP	-0.308
RRIRSRPPRLPRPRPRPTVHPRP	-0.0989
RRIRPRPPRLPRPRPRPIVVPRP	-0.134
RRIRMRPPRLPRPRPRPFTHPRP	-0.107
RRIRERPPRLPRPRPRPFDMPRP	-0.0448
RRIRHRPPRLPRPRPRPAHLPRP	0.0167
RRIRDRPPRLPRPRPRPPGLPRP	-0.317
RRIRCRPPRLPRPRPRPYCCPRP	-0.135
RRIRFRPPRLPRPRPRPASEPRP	0.21
RRIRRRPPRLPRPRPRPYEAPRP	0.125
RRIRHRPPRLPRPRPRPDLKPRP	-0.0314
RRIRHRPPRLPRPRPRPDFTPRP	-0.0849
RRIRFRPPRLPRPRPRPNLAPRP	-0.0885
RRIRLRPPRLPRPRPRPTGDPRP	-0.00286
RRIRTRPPRLPRPRPRPLPGPRP	0.164
RRIRFRPPRLPRPRPRPDQDPRP	-0.00191
RRIRARPPRLPRPRPRPLLWPRP	1.94
RRIRKRPPRLPRPRPRPPLWPRP	0.931
RRIRDRPPRLPRPRPRPTITPRP	0.0537
RRIRERPPRLPRPRPRPKQRPRP	0.235
RRIRNRPPRLPRPRPRPPKAPRP	0.00248
RRIRKRPPRLPRPRPRPWMNPRP	-0.00146
RRIRKRPPRLPRPRPRPAKGPRP	0.136
RRIRSRPPRLPRPRPRPRLQPRP	0.307

Sequence	shrunken log2 fold change
RRIRMRPPRLPRPRPRPMQNPRP	0.365
RRIRTRPPRLPRPRPRPDLLPRP	-0.263
RRIRFRPPRLPRPRPRPGINPRP	-0.288
RRIRVRPPRLPRPRPRPHGAPRP	-0.0881
RRIRQRPPRLPRPRPRPIQEPRP	-0.142
RRIRERPPRLPRPRPRPLITPRP	-0.412
RRIRFRPPRLPRPRPRPNMHPRP	-0.377
RRIRERPPRLPRPRPRPMYHPRP	-0.594
RRIRMRPPRLPRPRPRPTYIPRP	-1.08
RRIRDRPPRLPRPRPRPWIWPRP	0.188
RRIRHRPPRLPRPRPRPCDKPRP	-0.113
RRIRFRPPRLPRPRPRPKYEPRP	-0.063
RRIRTRPPRLPRPRPRPITKPRP	0.0123
RRIRRRPPRLPRPRPRPWTNPRP	0.0119
RRIRPRPPRLPRPRPRPARHPRP	0.616
RRIRHRPPRLPRPRPRPYWPPRP	-0.306
RRIRFRPPRLPRPRPRPHSQPRP	-0.351
RRIRSRPPRLPRPRPRPGGLPRP	0.177
RRIRTRPPRLPRPRPRPCMHPRP	-0.0639
RRIRHRPPRLPRPRPRPVPHPRP	-0.031
RRIRARPPRLPRPRPRPLRYPRP	-0.00438
RRIRARPPRLPRPRPRPLNAPRP	0.486
RRIRDRPPRLPRPRPRPIQKPRP	-0.0081
RRIRNRPPRLPRPRPRPVTYPRP	-0.168
RRIRVRPPRLPRPRPRPECWPRP	0.573

Sequence	shrunken log2 fold change
RRIRQRPPRLPRPRPRPGSMPRP	-0.174
RRIRRRPPRLPRPRPRPWPLPRP	0.468
RRIRIRPPRLPRPRPRPACDPRP	-0.0913
RRIRRRPPRLPRPRPRPKGYPRP	0.172
RRIRTRPPRLPRPRPRPCQNPRP	0.031
RRIRDRPPRLPRPRPRPHMDPRP	0.0662
RRIRSRPPRLPRPRPRPYAIPRP	-0.228
RRIRWRPPRLPRPRPRPTHFPRP	-0.478
RRIRCRPPRLPRPRPRPEENPRP	0.602
RRIRVRPPRLPRPRPRPLQMPRP	0.312
RRIRFRPPRLPRPRPRPEPCPRP	-0.111
RRIRFRPPRLPRPRPRPLYTPRP	-0.58
RRIRFRPPRLPRPRPRPEWGPRP	0.186
RRIRNRPPRLPRPRPRPNWTPRP	-0.0743
RRIRRRPPRLPRPRPRPWYIPRP	-0.595
RRIRIRPPRLPRPRPRPSFAPRP	-0.24
RRIRCRPPRLPRPRPRPVCYPRP	-0.269
RRIRQRPPRLPRPRPRPWWHPRP	0.00797
RRIRFRPPRLPRPRPRPPNVPRP	0.0696
RRIRKRPPRLPRPRPRPILGPRP	0.00783
RRIRSRPPRLPRPRPRPSDVPRP	-0.221
RRIRCRPPRLPRPRPRPTMCPRP	-0.755
RRIRLRPPRLPRPRPRPRDSPRP	-0.00311
RRIRNRPPRLPRPRPRPHVEPRP	-0.326
RRIRDRPPRLPRPRPRPLELPRP	-0.014

Sequence	shrunken log2 fold change
RRIRWRPPRLPRPRPRPLVIPRP	-0.0698
RRIRMRPPRLPRPRPRPIDPPRP	-0.0553
RRIRFRPPRLPRPRPRPGDRPRP	0.151
RRIRPRPPRLPRPRPRPEPTPRP	0.416
RRIRSRPPRLPRPRPRPNTEPRP	0.121
RRIRMRPPRLPRPRPRPWMDPRP	-0.0276
RRIRTRPPRLPRPRPRPGAGPRP	0.286
RRIRSRPPRLPRPRPRPRTGPRP	0.185
RRIRIRPPRLPRPRPRPNCMPRP	-0.287
RRIRCRPPRLPRPRPRPIFEPRP	0.0936
RRIRYRPPRLPRPRPRPHYYPRP	0.0204
RRIRQRPPRLPRPRPRPHQRPRP	0.153
RRIRNRPPRLPRPRPRPKIMPRP	0.0385
RRIRGRPPRLPRPRPRPDVSPRP	0.163
RRIRQRPPRLPRPRPRPFALPRP	-0.103
RRIRHRPPRLPRPRPRPLSEPRP	0.203
RRIRPRPPRLPRPRPRPNLHPRP	-0.203
RRIRSRPPRLPRPRPRPRNDPRP	-0.181
RRIRKRPPRLPRPRPRPVEAPRP	0.657
RRIRQRPPRLPRPRPRPMHHPRP	-0.288
RRIRQRPPRLPRPRPRPLKDPRP	-0.164
RRIRHRPPRLPRPRPRPYMLPRP	-1.66
RRIRRRPPRLPRPRPRPEPEPRP	0.837
RRIRQRPPRLPRPRPRPALSPRP	0.217
RRIRDRPPRLPRPRPRPQTVPRP	0.0628

Sequence	shrunken log2 fold change
RRIRPRPPRLPRPRPRPVWWPRP	0.232
RRIRRRPPRLPRPRPRPHCAPRP	0.419
RRIRVRPPRLPRPRPRPRLQPRP	-0.000502
RRIRERPPRLPRPRPRPGSKPRP	-0.129
RRIRCRPPRLPRPRPRPTDYPRP	1.93
RRIRWRPPRLPRPRPRPPNIPRP	-0.446
RRIRCRPPRLPRPRPRPNNAPRP	-0.799
RRIRARPPRLPRPRPRPCSTPRP	-0.0691
RRIRHRPPRLPRPRPRPDRQPRP	-0.135
RRIRHRPPRLPRPRPRPQGQPRP	0.043
RRIRPRPPRLPRPRPRPFQVPRP	-0.0122
RRIRSRPPRLPRPRPRPECKPRP	0.275
RRIRYRPPRLPRPRPRPYFFPRP	-0.792
RRIRLRPPRLPRPRPRPKPTPRP	0.15
RRIRVRPPRLPRPRPRPHMFPRP	-0.199
RRIRLRPPRLPRPRPRPRMVPRP	0.0504
RRIRDRPPRLPRPRPRPWYFPRP	-0.327
RRIRRRPPRLPRPRPRPGSMPRP	-0.387
RRIRYRPPRLPRPRPRPFYKPRP	-0.00388
RRIRCRPPRLPRPRPRPMKLPRP	-0.0356
RRIRQRPPRLPRPRPRPNIVPRP	-0.044
RRIRTRPPRLPRPRPRPACAPRP	0.441
RRIRGRPPRLPRPRPRPRCIPRP	0.273
RRIRKRPPRLPRPRPRPHQEPRP	0.0459
RRIRRRPPRLPRPRPRPTIKPRP	-0.0992

Sequence	shrunken log2 fold change
RRIRIRPPRLPRPRPRPCVMPRP	-0.106
RRIRPRPPRLPRPRPRPNMPPRP	-0.405
RRIRHRPPRLPRPRPRPYETPRP	-0.151
RRIRHRPPRLPRPRPRPCTGPRP	0.00233
RRIRLRPPRLPRPRPRPCEQPRP	0.0377
RRIRVRPPRLPRPRPRPPDSPRP	-0.136
RRIRFRPPRLPRPRPRPFLSPRP	-0.167
RRIRNRPPRLPRPRPRPAEHPRP	-0.201
RRIRFRPPRLPRPRPRPDEYPRP	-0.014
RRIRFRPPRLPRPRPRPTSWPRP	0.3
RRIRFRPPRLPRPRPRPRFYPRP	-0.0297
RRIRIRPPRLPRPRPRPAAMPRP	0.391
RRIRDRPPRLPRPRPRPPVLPRP	0.267
RRIRMRPPRLPRPRPRPFVAPRP	0.113
RRIRRRPPRLPRPRPRPWNVPRP	0.00231
RRIRQRPPRLPRPRPRPCYIPRP	-0.191
RRIRRRPPRLPRPRPRPSCCPRP	-0.0867
RRIRTRPPRLPRPRPRPHCFPRP	-0.102
RRIRDRPPRLPRPRPRPCQWPRP	-0.134
RRIRDRPPRLPRPRPRPPVAPRP	0.304
RRIRMRPPRLPRPRPRPELQPRP	-0.00152
RRIRERPPRLPRPRPRPKLKPRP	-0.387
RRIRHRPPRLPRPRPRPGMFPRP	-0.178
RRIRVRPPRLPRPRPRPKKTPRP	-0.0604
RRIRERPPRLPRPRPRPIVYPRP	0.0176
